Assays:
Assay in all cases: solid phase adherence assay, L. lactis on coated plates, absorbance 590 nm
human fibrinogen = target: T1, human fibrinogen (human, UniProt P02671 20-629; P02675 31-491; P02679 27-437)
T1 construct: The three chains are general knowledge about fibrinogen; also called human Fg
T1 sequence 1: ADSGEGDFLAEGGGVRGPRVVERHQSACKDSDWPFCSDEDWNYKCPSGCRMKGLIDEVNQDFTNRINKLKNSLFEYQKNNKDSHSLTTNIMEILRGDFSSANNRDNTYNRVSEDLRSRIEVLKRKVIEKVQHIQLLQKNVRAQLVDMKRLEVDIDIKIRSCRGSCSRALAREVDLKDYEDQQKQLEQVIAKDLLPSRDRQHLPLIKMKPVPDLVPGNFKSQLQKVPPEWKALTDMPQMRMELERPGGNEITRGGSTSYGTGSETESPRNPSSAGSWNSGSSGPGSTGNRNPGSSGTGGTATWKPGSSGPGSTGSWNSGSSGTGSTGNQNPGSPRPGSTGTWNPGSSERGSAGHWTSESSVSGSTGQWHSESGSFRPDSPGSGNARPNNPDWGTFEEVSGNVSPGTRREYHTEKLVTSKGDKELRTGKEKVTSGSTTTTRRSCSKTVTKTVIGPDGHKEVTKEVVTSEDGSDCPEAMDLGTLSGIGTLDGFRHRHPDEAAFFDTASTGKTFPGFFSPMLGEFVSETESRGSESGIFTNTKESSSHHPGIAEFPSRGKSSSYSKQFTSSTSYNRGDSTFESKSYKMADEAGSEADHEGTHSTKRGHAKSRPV
T1 sequence 2: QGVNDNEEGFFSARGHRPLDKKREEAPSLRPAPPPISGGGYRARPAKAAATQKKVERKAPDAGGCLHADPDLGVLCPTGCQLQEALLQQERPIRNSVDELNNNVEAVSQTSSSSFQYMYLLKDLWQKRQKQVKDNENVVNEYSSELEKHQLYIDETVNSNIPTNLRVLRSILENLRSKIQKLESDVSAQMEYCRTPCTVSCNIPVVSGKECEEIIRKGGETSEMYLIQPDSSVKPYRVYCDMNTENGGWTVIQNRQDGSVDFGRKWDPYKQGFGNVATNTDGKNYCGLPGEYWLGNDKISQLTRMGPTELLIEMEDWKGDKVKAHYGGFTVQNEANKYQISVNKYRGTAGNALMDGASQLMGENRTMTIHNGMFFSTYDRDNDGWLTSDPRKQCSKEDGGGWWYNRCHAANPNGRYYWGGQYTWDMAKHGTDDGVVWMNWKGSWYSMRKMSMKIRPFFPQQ
T1 sequence 3: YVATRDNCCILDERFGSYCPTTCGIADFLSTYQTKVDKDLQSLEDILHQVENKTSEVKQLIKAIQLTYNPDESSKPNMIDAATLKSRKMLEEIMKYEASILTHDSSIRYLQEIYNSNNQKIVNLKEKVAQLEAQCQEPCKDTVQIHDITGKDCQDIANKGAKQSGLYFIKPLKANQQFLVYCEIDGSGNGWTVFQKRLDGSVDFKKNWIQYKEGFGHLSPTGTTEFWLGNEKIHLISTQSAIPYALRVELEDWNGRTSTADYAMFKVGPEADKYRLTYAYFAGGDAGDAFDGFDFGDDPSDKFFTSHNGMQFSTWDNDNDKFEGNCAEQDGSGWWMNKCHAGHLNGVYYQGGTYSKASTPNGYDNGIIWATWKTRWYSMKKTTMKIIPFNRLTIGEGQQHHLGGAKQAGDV

bovine fibrinogen = target: T2, bovine fibrinogen (bovine, UniProt P02672 20-615; P02676 1-468; P12799 25-444)
T2 construct: The three chains are general knowledge about fibrinogen; also called bovine Fg
T2 sequence 1: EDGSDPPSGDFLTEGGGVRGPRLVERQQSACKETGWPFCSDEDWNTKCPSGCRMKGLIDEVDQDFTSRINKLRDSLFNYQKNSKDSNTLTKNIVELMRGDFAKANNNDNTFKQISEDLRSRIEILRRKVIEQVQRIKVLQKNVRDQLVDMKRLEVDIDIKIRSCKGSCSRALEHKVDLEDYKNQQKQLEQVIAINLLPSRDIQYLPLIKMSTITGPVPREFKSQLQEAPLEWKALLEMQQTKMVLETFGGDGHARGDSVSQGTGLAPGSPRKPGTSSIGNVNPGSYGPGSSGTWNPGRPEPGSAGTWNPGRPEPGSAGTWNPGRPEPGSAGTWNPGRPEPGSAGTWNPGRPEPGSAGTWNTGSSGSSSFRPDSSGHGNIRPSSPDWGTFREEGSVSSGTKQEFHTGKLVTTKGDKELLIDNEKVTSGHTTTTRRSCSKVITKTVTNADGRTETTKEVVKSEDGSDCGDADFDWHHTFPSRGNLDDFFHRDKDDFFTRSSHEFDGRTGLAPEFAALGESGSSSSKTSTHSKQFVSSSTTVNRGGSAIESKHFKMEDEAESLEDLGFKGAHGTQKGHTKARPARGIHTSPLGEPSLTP
T2 sequence 2: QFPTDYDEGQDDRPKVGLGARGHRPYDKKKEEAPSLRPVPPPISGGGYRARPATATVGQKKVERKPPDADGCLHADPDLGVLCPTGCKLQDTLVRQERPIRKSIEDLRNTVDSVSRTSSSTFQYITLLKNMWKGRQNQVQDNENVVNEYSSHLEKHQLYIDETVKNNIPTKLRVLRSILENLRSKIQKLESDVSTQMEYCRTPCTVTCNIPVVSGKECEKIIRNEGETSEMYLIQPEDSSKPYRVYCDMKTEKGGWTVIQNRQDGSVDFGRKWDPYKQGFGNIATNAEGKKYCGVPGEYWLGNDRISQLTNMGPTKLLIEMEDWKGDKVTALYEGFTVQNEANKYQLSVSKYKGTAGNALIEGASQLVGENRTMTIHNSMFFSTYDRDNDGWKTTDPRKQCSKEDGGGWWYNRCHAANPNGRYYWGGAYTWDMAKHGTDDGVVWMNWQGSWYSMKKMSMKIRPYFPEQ
T2 sequence 3: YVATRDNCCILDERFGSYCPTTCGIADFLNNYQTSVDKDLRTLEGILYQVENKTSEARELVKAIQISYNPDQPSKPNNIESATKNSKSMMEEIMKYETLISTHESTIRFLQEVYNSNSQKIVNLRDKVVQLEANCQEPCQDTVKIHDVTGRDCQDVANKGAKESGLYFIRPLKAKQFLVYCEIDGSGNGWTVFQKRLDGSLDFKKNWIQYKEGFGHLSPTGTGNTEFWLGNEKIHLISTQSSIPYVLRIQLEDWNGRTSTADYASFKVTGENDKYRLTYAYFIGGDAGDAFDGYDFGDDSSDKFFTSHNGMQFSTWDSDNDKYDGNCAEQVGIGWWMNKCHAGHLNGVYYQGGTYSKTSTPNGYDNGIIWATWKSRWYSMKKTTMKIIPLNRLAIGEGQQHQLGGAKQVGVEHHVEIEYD

[1] = target: T3, recombinant mouse cytokeratin 10 (mouse, UniProt P02535 454-570)
T3 construct: also called CK10; recombinant CK10
T3 sequence: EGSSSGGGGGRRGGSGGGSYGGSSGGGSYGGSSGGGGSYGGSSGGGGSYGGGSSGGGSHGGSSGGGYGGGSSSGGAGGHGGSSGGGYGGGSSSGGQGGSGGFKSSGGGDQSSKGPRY

B1: SpsL of S. pseudintermedius ED99, full-length, expressed on L. lactis MG1363 (pOri23) (other)
chain: NEDVTETTGRNSVTTQASEQHLQVEAVPQEGNNVNVSSVKVPTNTATQAQEDVASVSDVKAHADDALQVQESSHTDGVSSEFKQETAYANPQTAETVKPNSEAVHQSEYEDKQKPVSSSRKEDETMLQQQQVEAKNVVSAEEVSKEENTQVMQSPQDVEQHVGGKDISNEVVVDRSDIKGFNSETTIRPHQGQGGRLNYQLKFPSNVKPGDQFTIKLSDNINTHGVSVERTAPRIMAKNTEGATDVIAEGLVLEDGKTIVYTFKDYVNGKQNLTAELSVSYFVSPEKVLTTGTQTFTTMIGNHSTQSNIDVYYDNSHYVDGRISQVNKKEAKFQQIAYINPNGYLNGRGTIAVNGEVVSGTTKDLMQPTVRVYQYKGQGVPPESITIDPNMWEEISINDTMVRKYDGGYSLNLDTSKNQKYAIYYEGAYDAQADTLLYRTYIQSLNSYYPFSYQKMNGVKFYENSASGSGELKPKPPEQPKPEPEIQADVVDIIEDSHVIDIGWNTAVGEESGANQGPQEEITENHDIEVIEENNLVEMTEDTAVGEESGANQGPQEEITENHDIEVIEENNLVEMTEDTALEEESGANQGPQEEITENHDIEVIEENNLVEMTEDTALEEESGANQGPQEEITENHDIEVIEENNLVEMTEDTAVGEESGANQGPQEEITENHDIEVIEENNLVEMTEDTAVGEESGANQGPQEEITENHDIEVIEENNLVEMTEDTALEEESGANQGPQEEITENHNIEVIEENNLVEMTEDTAVGEESGANPGPQEEVTENQPQQEEIMENQEVEKKGDSNLVESTKTPKAEESVSVQPTLEDKNTKNHVNTVVVNTKVSEVKEKDPHHTKALPDTGTTSRSHSMMIPLLLVAGSVVLLRRKKKHSKVN
notes: also called L. lactis expressing SpsL; putative MSCRAMM SpsL
Question: Does B1 bind (human fibrinogen)?
Answer: no binding (tested: 1 µg Fg coated per well)

Question: Does B1 bind (bovine fibrinogen)?
Answer: no binding (tested: 1 µg Fg coated per well)

Question: Does B1 bind [1]?
Answer: no binding (tested: 1 µg CK10 coated per well)

B2: SpsO of S. pseudintermedius ED99, full-length, expressed on L. lactis MG1363 (pOri23) (other)
chain: SVKEGQQSINSSEKESADPTVVDLISKKETNLDGLDVSREETTKVPINENKRGEEQSISDKAITEKADTPVSNLSSKEVEEQGVSDKAITEKADTPVTNLSSKEAKEQGASDRVITEKADTPVSNLSSKEAKEQGASDRVITEKADTPVSNLSSKEVEEQGVSDKAIEKIADASATDLSSKEEVEQDISTQGKVKSKEAVQVESSQLQNLNSEINAEPNEIKAIDRSSILPLNLNDEENNKKVNKGTRVPEATLRNASNNQLNTRMRSVSLFRVARLTEINRNVNDKVKVSDIDIAIAPPHTNPKTGKEEFWATSSSVLKLKASYELDNSISKGDQFTIQFGQNIRPGGLNLPRPYNFLYDKDKKLVATGRYNKESNTITYTFTDYVDKHQNIKGSFEMNAFSRKENATTDKTAYPMDVTIANQKYSENIIVDYGNKKNAAIISSTEYIDLDGSRKMTTYINQNGSKNSIYRADMQIDLNGYKFDPSKNNFKIYEVENSSDFVDSFSPDVSKLRDVTSQFNIQYTNNNTMAKVDFGTNLWRGKKYIIQQVANIDDSKLVKNASINYTLNKMDFNNKRTVETHNNTYSTVKDKSTALGDVQESQSISESQSVSESESLSESQSISESESLSESQSISESESLSESQSISESESLSESQSISESESLSESQSISESESLSESQSISESESLSESQSISESESLSESQSISESESLSESQSISESESLSESQSISESESLSESQSISESESLSESQSISESESLSESQSISESESLSESQSISESESLSESQSISESESLSESQSISESESLSESQSISESESLSESQSISESESLSESQSISESESLSESQSISESESLSESQSISESESLSESQSISESESLSESQSISESESLSESQSISESESLSESQSISESESLSESQSISESESLSESQSISESESLSESQSISESESLSESQSISESESLSESQSVSESESLSESQSISESESLSESQSISESESLSESQSISESESLSESQSISESESLSESQSISESESLSESQSISESESLSESQSISESESLSESQSISESESLSESQSISESESLSESQSISESESLSESQSISESESLSESQSISESESLSESQSISESESLSESQSISESESLSESQSVSESESLSESQSISESESLSESQSISESESLSESQSISESESLSESQSISESESLSESQSISESESLSESQSISESESLSESQSISESESLSESQSVSESESLSESQSISESESLSESQSISESESLSESQSISESESLSESQSISESESLSESQSISESESLSESQSISESESLSESQSISESESLSESQSISESESLSESQSISESESLSESQSISESESLSESQSISESESLSESQSISESESLSESQSISESESLSESQSISESESLSESQSISESESLSESQSISESESLSESQSISESESLSESQSISESESLSESQSISESESLSESQSISERESLSESQSISESESLSESQSISESESLSESQSISESESLSESQSISESESLSESQSISESESLSESQSISESESLSESQSISESESLSESQSISESESLSESQSISESESLSESQSISESESLSESQSVSESESLSESQSISESESLSESQSISESESLSESQSISESESLSESQSISESESLSESQSISESESLSESQSISESESLSESQSISESESLSESQSISESESLSESQSISESESLSESQSISESESLSESQSISESESKSLPNTGTGEKISNYPGILGGLLSILGISLLKRKDREKKLGQKSNK
notes: also called L. lactis expressing SpsO; putative MSCRAMM SpsO
Question: What does the source list for B2?
Answer: binding result (human fibrinogen): no binding (tested: 1 µg Fg coated per well); binding result (bovine fibrinogen): no binding (tested: 1 µg Fg coated per well); binding result [1]: no binding (tested: 1 µg CK10 coated per well)

From patent US20180237480A1 (UNIVERSITY OF EDINBURGH, published 2018)
